{"source": "the RNAGym collection of RNA variant scans (doi:10.1073/pnas.2313332121)", "parents": {"B1": {"name": "TPR t1 (parent)", "chain": "GACCAAUCUGCCCUCAGAGCUCGAGAACAUCUUCGGAUGCAGAGGAGGCAGGCUUCGGUGGCGCGAUAGCGCCAACGUCCUCAACCUCCAAUGCAUCCCACCACAUGAUGAUGCCUGAAGAGCCUUGGUUUUUUG"}}}
{"variants_of": "B1", "assay": "polymerase ribozyme fitness, log enrichment relative to wild type (log ratio); higher = more active; in vitro selection for triplet polymerase activity", "how_it_was_run": "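To select mutant libraries of each subunit of a heterodimeric triplet polymerase ribozyme, built by PCR and transcribed, each was annealed with a biotinylated primer, partner subunit and triplets, then incubated frozen at −7 °C. Extended constructs were gel-excised, captured on streptavidin beads and amplified by RT-PCR, in one round carried out in triplicate. Illumina sequencing of input and output libraries kept genotypes with ≥10 input reads and ≥1 read per output. Fitness is the base-2 logarithm of genotype enrichment relative to wild-type enrichment, from inverse-variance-weighted replicate averages.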"}
{"variant": "C20A A37C G47C A83U U133G", "polymerase ribozyme fitness (log ratio)": -4.54}
{"variant": "A46U U78C C82G", "polymerase ribozyme fitness (log ratio)": -1.76}
{"variant": "G58U C64U U78C U96C C124U U126C U133G", "polymerase ribozyme fitness (log ratio)": -0.65}
{"variant": "G63U G117A", "polymerase ribozyme fitness (log ratio)": -1.66}
{"variant": "C4G C12U", "polymerase ribozyme fitness (log ratio)": -2.1}
{"variant": "C114G G128A U130A", "polymerase ribozyme fitness (log ratio)": -5.53}
{"variant": "G63U U112A", "polymerase ribozyme fitness (log ratio)": -0.0798}
{"variant": "C28U U55C U59C", "polymerase ribozyme fitness (log ratio)": -3.17}
{"variant": "C8G A46U G52U C56A C82U C101A", "polymerase ribozyme fitness (log ratio)": -1.86}
{"variant": "A27G A46G C101A", "polymerase ribozyme fitness (log ratio)": -3.22}
{"variant": "A27U A50G U133A", "polymerase ribozyme fitness (log ratio)": -2.6}
{"variant": "C12U C40G A50G C64G A103U U112C C115A A118G G127U", "polymerase ribozyme fitness (log ratio)": -5.71}
{"variant": "G113A C114G", "polymerase ribozyme fitness (log ratio)": -1.96}
{"variant": "G47A C53G C85A C89A A91C C94A U116C G120C", "polymerase ribozyme fitness (log ratio)": -5.21}
{"variant": "C76U U96G U116G", "polymerase ribozyme fitness (log ratio)": -3.28}
{"variant": "A27C U112C", "polymerase ribozyme fitness (log ratio)": -1.2}
{"variant": "C13U G51A C56G U78G C89U", "polymerase ribozyme fitness (log ratio)": -0.499}
{"variant": "C3U C11U A50U C64U U81G C102U G128A", "polymerase ribozyme fitness (log ratio)": -3.47}
{"variant": "G48C A90U U112A", "polymerase ribozyme fitness (log ratio)": -0.162}
{"variant": "U14A C72U C85A G93A", "polymerase ribozyme fitness (log ratio)": -3.6}
{"variant": "U7A U9G C82G", "polymerase ribozyme fitness (log ratio)": -0.227}
{"variant": "C70U C72A C79U G110A", "polymerase ribozyme fitness (log ratio)": -2.38}
{"variant": "C11U A46U G47C G52U U55C G117U", "polymerase ribozyme fitness (log ratio)": -6.86}
{"variant": "C11U U96A", "polymerase ribozyme fitness (log ratio)": -1.94}
{"variant": "U38C C101U", "polymerase ribozyme fitness (log ratio)": -1.08}
{"variant": "U33G C49G G58C A121C", "polymerase ribozyme fitness (log ratio)": -6.04}
{"variant": "U14C G93A", "polymerase ribozyme fitness (log ratio)": -2.47}
{"variant": "A29G C31A C56G C99A A121G U129C", "polymerase ribozyme fitness (log ratio)": -7.31}
{"variant": "G63A G69C", "polymerase ribozyme fitness (log ratio)": -6.1}
{"variant": "C56U C64A C115U", "polymerase ribozyme fitness (log ratio)": -7.12}
{"variant": "G36U C73A C124U", "polymerase ribozyme fitness (log ratio)": 0.315}
{"variant": "U38G U96A C101U", "polymerase ribozyme fitness (log ratio)": -2.15}
{"variant": "G44U G47A C56A C124U G127C U131A G135C", "polymerase ribozyme fitness (log ratio)": -3.28}
{"variant": "U129C U133G", "polymerase ribozyme fitness (log ratio)": 0.0769}
{"variant": "U59A G71A A91G A100U G113A", "polymerase ribozyme fitness (log ratio)": -4.54}
{"variant": "A43C G77C", "polymerase ribozyme fitness (log ratio)": -2.27}
{"variant": "C28G G47A C56U U116G", "polymerase ribozyme fitness (log ratio)": -5.77}
{"variant": "G10U C13A A41C G71A C85U", "polymerase ribozyme fitness (log ratio)": -3.61}
{"variant": "A6G G45U C73U C98U A111G U125A", "polymerase ribozyme fitness (log ratio)": -5.29}
{"variant": "G47U C80U C124A U131G G135A", "polymerase ribozyme fitness (log ratio)": -0.0494}
{"variant": "C22A C123A", "polymerase ribozyme fitness (log ratio)": -4.13}
{"variant": "G77C U96A U125A", "polymerase ribozyme fitness (log ratio)": -3.38}
{"variant": "G58U G69A A111C", "polymerase ribozyme fitness (log ratio)": -5.38}
{"variant": "A5C U7C G57U C99U U112A", "polymerase ribozyme fitness (log ratio)": -3.19}
{"variant": "A41C C98U", "polymerase ribozyme fitness (log ratio)": -2.48}
{"variant": "A2U C13U A50G U112C", "polymerase ribozyme fitness (log ratio)": 0.516}
{"variant": "C8A G120C", "polymerase ribozyme fitness (log ratio)": 1.71}
{"variant": "G48C G60U U106A G107C", "polymerase ribozyme fitness (log ratio)": -6.48}
{"variant": "G36U G61A G93C G120C", "polymerase ribozyme fitness (log ratio)": -0.0777}
{"variant": "G60U G128U", "polymerase ribozyme fitness (log ratio)": -2.12}
{"variant": "C15A A37U G52C G63A U87A G120C", "polymerase ribozyme fitness (log ratio)": -4.33}
{"variant": "C12U C70U G71U U112A C123G", "polymerase ribozyme fitness (log ratio)": 0.00675}
{"variant": "A2C G39U A41C C56G C101A C123G", "polymerase ribozyme fitness (log ratio)": -4.81}
{"variant": "C4U C49U U55G U96A", "polymerase ribozyme fitness (log ratio)": -2.11}
{"variant": "C56G U78A U81A G113C", "polymerase ribozyme fitness (log ratio)": -3.06}
{"variant": "C73U C79G A119G C123A", "polymerase ribozyme fitness (log ratio)": -0.377}
{"variant": "C53G G63U G122A", "polymerase ribozyme fitness (log ratio)": -1.7}
{"variant": "G44A G47U", "polymerase ribozyme fitness (log ratio)": -2.36}
{"variant": "A18G A43C U54A", "polymerase ribozyme fitness (log ratio)": -4.06}
{"variant": "G45C A84G", "polymerase ribozyme fitness (log ratio)": -1.49}
{"variant": "C15A C28G G61A G120A", "polymerase ribozyme fitness (log ratio)": -2.11}
{"variant": "A16G A18C U54G", "polymerase ribozyme fitness (log ratio)": -0.225}
{"variant": "A5C U109A", "polymerase ribozyme fitness (log ratio)": -4.8}
{"variant": "G42U C101U G113C", "polymerase ribozyme fitness (log ratio)": -2.52}
{"variant": "C49U G60C G127A", "polymerase ribozyme fitness (log ratio)": -2.38}
{"variant": "G47C G61C", "polymerase ribozyme fitness (log ratio)": -3.43}
{"variant": "C79U", "polymerase ribozyme fitness (log ratio)": -0.19}
{"variant": "A41U C88G", "polymerase ribozyme fitness (log ratio)": -2.13}
{"variant": "C73A C86A", "polymerase ribozyme fitness (log ratio)": -0.668}
{"variant": "A2G C101G", "polymerase ribozyme fitness (log ratio)": -1.53}
{"variant": "C3U C11U U54G", "polymerase ribozyme fitness (log ratio)": -1.05}
{"variant": "C79G C123G U133A", "polymerase ribozyme fitness (log ratio)": 0.663}
{"variant": "C3U A27U G61U", "polymerase ribozyme fitness (log ratio)": -2.61}
{"variant": "C49U U106A U116G", "polymerase ribozyme fitness (log ratio)": -4.54}
{"variant": "G48A C97A", "polymerase ribozyme fitness (log ratio)": -5.22}
{"variant": "C73U U116A", "polymerase ribozyme fitness (log ratio)": -3.52}
{"variant": "G10U A41C A91U G120C U129C", "polymerase ribozyme fitness (log ratio)": -1.99}
{"variant": "A37G U59C A103U G110C G122A", "polymerase ribozyme fitness (log ratio)": -6.29}
{"variant": "C20U G36A G122A G127C G135U", "polymerase ribozyme fitness (log ratio)": -5.15}
{"variant": "C64U U129A", "polymerase ribozyme fitness (log ratio)": -0.991}
{"variant": "C13U C20U A74U U92A", "polymerase ribozyme fitness (log ratio)": -3.91}
{"variant": "C12G U32G", "polymerase ribozyme fitness (log ratio)": -6.87}
{"variant": "C31U A37G G69U", "polymerase ribozyme fitness (log ratio)": -3.72}
